# Experimental data reported in the supplement of paper PMC10567573.
# B1: WDR88 (parent)
# chain: LLTITKAHSNAISNCCFTFSGHFL
# Variants of: B1
# Test: protein stability index of a GFP-peptide fusion (GPS, HEK-293T) (PSI 1-6); higher = more stable
# Settings: c terminus: a fixed tail appended
# 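Further: lentivirally expressed fusions sorted by FACS into six bins by GFP to DsRed ratio, PSI derived from sequencing read proportions per bin multiplied by bin number.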
row,Variant,protein stability index
1,LLTITKAHSIAISNCCFTFSGHFL [N10I],3.1
2,LLTITKAHSKAISNCCFTFSGHFL [N10K],2.12
3,LLTITKAHSPAISNCCFTFSGHFL [N10P],2.89
4,LLTITKAHSDAISNCCFTFSGHFL [N10D],3.19
5,LLTITKAHSSAISNCCFTFSGHFL [N10S],3.46
6,LLTITKAHSQAISNCCFTFSGHFL [N10Q],3.31
7,LLTITKAHSVAISNCCFTFSGHFL [N10V],2.49
8,LLTITKAHSFAISNCCFTFSGHFL [N10F],3.94
9,LLTITKAHSHAISNCCFTFSGHFL [N10H],2.75
10,LLTITKAHSAAISNCCFTFSGHFL [N10A],2.64
11,LLTITKAHSTAISNCCFTFSGHFL [N10T],3.75
12,LLTITKAHSCAISNCCFTFSGHFL [N10C],4.06
13,LLTITKAHSRAISNCCFTFSGHFL [N10R],2.99
14,LLTITKAHSNAISNCCDTFSGHFL [F17D],1.92
15,LLTITKAHSNAISNCCCTFSGHFL [F17C],1.84
16,LLTITKAHSNAISNCCTTFSGHFL [F17T],2.66
17,LLTITKAHSNAISNCCSTFSGHFL [F17S],1.37
18,LLTITKAHSNAISNCCETFSGHFL [F17E],2.35
19,LLTITKAHSNAISNCCQTFSGHFL [F17Q],2.58
20,LLTITKAHSNAISNCCNTFSGHFL [F17N],2.58
21,LLTITKAHSNAISNCCLTFSGHFL [F17L],3.73
22,LLTITKAHSNAISNCCYTFSGHFL [F17Y],3.26
23,LLTITKAHSNAISNCCWTFSGHFL [F17W],1.45
24,LLTITKAHSNAISNCCHTFSGHFL [F17H],1.42

row,Variant,protein stability index
1,LLTITKAHSNAISNCCMTFSGHFL [F17M],2.29
2,LLTITKAHSNAISNCCVTFSGHFL [F17V],2.88
3,LLTITKAHSNAISNCCPTFSGHFL [F17P],2.13
4,LLTITKAHSNAISNCCGTFSGHFL [F17G],1.69
5,LLTITKAHSNAISNCCKTFSGHFL [F17K],2.43
6,LLTITKAHSNAISNCCATFSGHFL [F17A],2.38
7,LLTITKAHSNAISNCCITFSGHFL [F17I],3.65
8,LLTITKAHSNAGSNCCFTFSGHFL [I12G],2.96
9,LLTITKAHSNASSNCCFTFSGHFL [I12S],3.14
10,LLTITKAHSNAQSNCCFTFSGHFL [I12Q],2.57
11,LLTITKAHSNALSNCCFTFSGHFL [I12L],3.56
12,LLTITKAHSNAHSNCCFTFSGHFL [I12H],3.51
13,LLTITKAHSNAKSNCCFTFSGHFL [I12K],2.4
14,LLTITKAHSNANSNCCFTFSGHFL [I12N],2.49
15,LLTITKAHSNAFSNCCFTFSGHFL [I12F],3.3
16,LLTITKAHSNAPSNCCFTFSGHFL [I12P],2.55
17,LLTITKAHSNAMSNCCFTFSGHFL [I12M],3.38
18,LLTITKAHSNATSNCCFTFSGHFL [I12T],2.98
19,LLTITKAHSNAESNCCFTFSGHFL [I12E],1.77
20,LLTITKAHSNAYSNCCFTFSGHFL [I12Y],2.33
21,LLTITKAHSNAVSNCCFTFSGHFL [I12V],3.69
22,LLTITKAHSNARSNCCFTFSGHFL [I12R],2.74
23,LLTITKAHSNAASNCCFTFSGHFL [I12A],2.3
24,LLTITKAHSNADSNCCFTFSGHFL [I12D],1.96

row,Variant,protein stability index
1,LLTITKAHSNACSNCCFTFSGHFL [I12C],3.49
2,LLTITKAHSNAISWCCFTFSGHFL [N14W],2.37
3,LLTITKAHSNAISPCCFTFSGHFL [N14P],3.55
4,LLTITKAHSNAISFCCFTFSGHFL [N14F],3.06
5,LLTITKAHSNAISGCCFTFSGHFL [N14G],3.72
6,LLTITKAHSNAISVCCFTFSGHFL [N14V],2.52
7,LLTITKAHSNAISYCCFTFSGHFL [N14Y],2.53
8,LLTITKAHSNAISLCCFTFSGHFL [N14L],4.15
9,LLTITKAHSNAISKCCFTFSGHFL [N14K],2.63
10,LLTITKAHSNAISCCCFTFSGHFL [N14C],3.23
11,LLTITKAHSNAISDCCFTFSGHFL [N14D],3.07
12,LLTITKAHSNAISHCCFTFSGHFL [N14H],3.22
13,LLTITKAHSNAISECCFTFSGHFL [N14E],2.25
14,LLTITKAHSNAISSCCFTFSGHFL [N14S],2.39
15,LLTITKAHSNAISACCFTFSGHFL [N14A],1.44
16,LLTITKAHSNAISQCCFTFSGHFL [N14Q],1.82
17,LLTITKAHSNAISICCFTFSGHFL [N14I],3.89
18,LLTITKAHSNAISTCCFTFSGHFL [N14T],2.94
19,LLTITKAHSNAISMCCFTFSGHFL [N14M],2.99
20,LLTITKAHWNAISNCCFTFSGHFL [S9W],3.1
21,LLTITKAHYNAISNCCFTFSGHFL [S9Y],3.69
22,LLTITKAHQNAISNCCFTFSGHFL [S9Q],3.42
23,LLTITKAHMNAISNCCFTFSGHFL [S9M],2.31
24,LLTITKAHPNAISNCCFTFSGHFL [S9P],2.39

row,Variant,protein stability index
1,LLTITKAHVNAISNCCFTFSGHFL [S9V],4.49
2,LLTITKAHCNAISNCCFTFSGHFL [S9C],1.89
3,LLTITKAHFNAISNCCFTFSGHFL [S9F],4.2
4,LLTITKAHGNAISNCCFTFSGHFL [S9G],2.8
5,LLTITKAHDNAISNCCFTFSGHFL [S9D],3.12
6,LLTITKAHANAISNCCFTFSGHFL [S9A],3.55
7,LLTITKAHTNAISNCCFTFSGHFL [S9T],2.15
8,LLTITKAHHNAISNCCFTFSGHFL [S9H],2.45
9,LLTITKAHINAISNCCFTFSGHFL [S9I],2.46
10,LLTITKAHRNAISNCCFTFSGHFL [S9R],1.77
11,LLTITKAHLNAISNCCFTFSGHFL [S9L],2.95
12,LLTITKAHNNAISNCCFTFSGHFL [S9N],3.57
13,LLTITKAHKNAISNCCFTFSGHFL [S9K],2.83
14,LLTITKAHSNAISNCHFTFSGHFL [C16H],2.61
15,LLTITKAHSNAISNCEFTFSGHFL [C16E],2.9
16,LLTITKAHSNAISNCIFTFSGHFL [C16I],2.8
17,LLTITKAHSNAISNCNFTFSGHFL [C16N],4.12
18,LLTITKAHSNAISNCKFTFSGHFL [C16K],2.37
19,LLTITKAHSNAISNCGFTFSGHFL [C16G],2.75
20,LLTITKAHSNAISNCLFTFSGHFL [C16L],3.05
21,LLTITKAHSNAISNCSFTFSGHFL [C16S],2.44
22,LLTITKAHSNAISNCPFTFSGHFL [C16P],2.25
